Measured values from patent US20170122964.

Test system: nucleosome on the remodeling DNA template with Atto 647N labeled histone H2B

ACF remodeling complex
FRET signal (nucleosome sliding assay): Nucleosome on the remodeling DNA template shows FRET signal, which is reduced over time by the remodeling complex.
